Test results reported in paper PMC4083444 (Nature Communications, 2014).
Where a chain is given by its changes, count along the chain named. Names may count otherwise.

B1: TmCdsA S200C/S223C double-cysteine mutant (enzyme, Thermotoga maritima, UniProt Q9X1B7 1-270, looked up)
chain: MDDLKTRVITASVVAPFVVLCFVSYESLIGLVSAILILAGYELITLEMKERDARFFYVILLALYPVLYGLVFEEPTQPLSILFITGVVFSLITDKDPSQVFKTVAAFSIALIYVTFFLSFFLPIYRDFGAANALLVLTSTWVFDSFAYFTGLKFGRTRISPRYSPRKSLEGVIGGFLGVVIYTFLYRLVVNDLLSVNVICFRTFLPFAATVAIMDTFGDIFECALKRHYGVKDSGKTLPGHGGMLDRIDGLLFVAPVSYIVFKILEGVVR
modifications: mercury labels (CH3HgCl) bound to the endogenous and engineered Cys residues in the crystal
B2: TmCdsA S200C/S258C double-cysteine mutant (enzyme, Thermotoga maritima, UniProt Q9X1B7 1-270, looked up)
chain: B1 chain with C223S, S258C

Target: the molecule itself
Assay: crystal structure

Row | Protein | binding result
1 | B1 | binds
2 | B2 | binds
